According to PMC5766984, “Correlation of structure, function and protein dynamics in GH7 cellobiohydrolases from Trichoderma atroviride, T. reesei and T. harzianum” (Biotechnology for Biofuels, 2018):

Legend:
[1] = target: T1, TatCel7A (Trichoderma atroviride, UniProt G9NTY1); assay: competitive (product) inhibition of pNP-Lac hydrolysis, pH […] °C; format: biochemical
T1 construct: gene TRIATDRAFT_88458

[2] = target: T2, TreCel7A (Trichoderma reesei, UniProt P62694); assay: as above; format: biochemical
T2 construct: gene cbh1
T2 sequence (P62694 18-451): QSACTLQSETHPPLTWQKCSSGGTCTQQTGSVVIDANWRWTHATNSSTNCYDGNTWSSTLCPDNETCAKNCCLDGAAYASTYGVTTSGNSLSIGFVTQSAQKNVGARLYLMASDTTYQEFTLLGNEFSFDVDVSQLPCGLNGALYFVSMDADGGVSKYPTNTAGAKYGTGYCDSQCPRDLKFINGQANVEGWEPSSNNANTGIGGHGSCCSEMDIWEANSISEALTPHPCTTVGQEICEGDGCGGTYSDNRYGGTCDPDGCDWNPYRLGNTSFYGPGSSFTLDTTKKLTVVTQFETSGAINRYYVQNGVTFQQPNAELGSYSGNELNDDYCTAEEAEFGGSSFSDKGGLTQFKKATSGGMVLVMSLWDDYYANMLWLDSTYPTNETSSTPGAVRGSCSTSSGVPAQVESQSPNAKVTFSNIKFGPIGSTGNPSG

[3] = target: T3, ThaCel7A (Trichoderma harzianum, UniProt Q9P8P3); assay: as above; format: biochemical
T3 construct: gene cbh1
T3 sequence (Q9P8P3 18-443): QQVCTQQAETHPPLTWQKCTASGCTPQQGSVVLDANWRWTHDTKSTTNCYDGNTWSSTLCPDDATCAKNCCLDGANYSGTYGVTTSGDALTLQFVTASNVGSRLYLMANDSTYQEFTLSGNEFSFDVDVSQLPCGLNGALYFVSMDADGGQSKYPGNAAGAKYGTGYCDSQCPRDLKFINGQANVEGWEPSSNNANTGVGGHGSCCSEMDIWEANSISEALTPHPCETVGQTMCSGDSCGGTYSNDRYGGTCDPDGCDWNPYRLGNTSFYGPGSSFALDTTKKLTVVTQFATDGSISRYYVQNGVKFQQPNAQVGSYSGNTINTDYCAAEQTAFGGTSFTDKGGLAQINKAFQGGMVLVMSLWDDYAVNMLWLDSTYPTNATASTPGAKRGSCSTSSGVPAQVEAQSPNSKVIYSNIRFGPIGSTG

[4] = substrate: [H][C@@]1(O[C@H]2[C@H](O)[C@@H](O)[C@H](Oc3ccc([N+](=O)[O-])cc3)O[C@@H]2CO)O[C@H](CO)[C@H](O)[C@H](O)[C@H]1O; assay: purified protein; format: biochemical, Trichoderma atroviride; settings: subsites (−[…]/−[…]/+[…]) where pNP-Lac should bind for hydrolysis; pH 4.5; 30.0 °C
[5] = substrate: [H][C@@]1(O[C@H]2[C@H](O)[C@@H](O)[C@H](Oc3ccc([N+](=O)[O-])cc3)O[C@@H]2CO)O[C@H](CO)[C@H](O)[C@H](O)[C@H]1O; assay: purified protein; format: biochemical, Trichoderma harzianum; settings: subsites (−[…]/−[…]/+[…]) where pNP-Lac should bind for hydrolysis; pH 4.5; 30.0 °C
[6] = substrate: [H][C@@]1(O[C@H]2[C@H](O)[C@@H](O)[C@H](Oc3ccc([N+](=O)[O-])cc3)O[C@@H]2CO)O[C@H](CO)[C@H](O)[C@H](O)[C@H]1O; assay: purified protein; format: biochemical, Trichoderma reesei; settings: subsites (−[…]/−[…]/+[…]) where pNP-Lac should bind for hydrolysis; pH 4.5; 30.0 °C

Molecule `OC[C@H]1O[C@@H](O[C@H]2[C@H](O)[C@@H](O)C(O)O[C@@H]2CO)[C@H](O)[C@@H](O)[C@@H]1O` (stereo partly drawn) [cellobiose] has a Ki [1] of 72 µM, a Ki [2] of 24 µM and a Ki [3] of 49 µM.

B1: TatCel7A (Trichoderma atroviride IMI 206040) (protein)
chain: QQVCTTQAETHPALSWSKCTSGGSCTTQAGKVVLDANWRWTHAYPSGNNCYNGNTWDATLCPDDATCAKNCCLEGADYSGTYGVTTSGNQLTIDFVTQSANKNVGARLYLMASDTAYEEFTLLNNEFSFDVDVSALPCGLNGALYFVSMDADGGASKYPTNLAGAKYGTGYCDSQCPRDLKFISGQANVEGWQPSSNNANTGIGGHGSCCSEMDIWEANSISQALTPHPCETVGQVTCSGDDCGGTYSNNRYGGTCDPDGCDWNPYRLGNHTFYGPGSGFTVDTTKKITVVTQFSSTGINRYYVQNGVKFVQPNASGLSGYTGNTINSAYCSAEQTAFGGTSFTDKGGLTQMNKALSGGMVLVLSLWDDYAANMLWLDSTYPTNDTASTPGAARGTCSTSSGVPATVEQQSPNSKVVFSNIKFGPIGSTG
For B1, the Km [4] was 1000 µM, the kcat [4] was 0.019 s⁻¹ and the kcat/Km [4] was 19 M⁻¹ s⁻¹.

B2: ThaCel7A (Trichoderma harzianum) (protein)
chain: T3 sequence (Q9P8P3 18-443)
B2 showed a Km [5] of 900 µM, a kcat [5] of 0.067 s⁻¹ and a kcat/Km [5] of 75 M⁻¹ s⁻¹.

B3: TreCel7A (Trichoderma reesei) (protein)
chain: T2 sequence (P62694 18-451)
Work on B3 yielded a Km [6] of 720 µM, a kcat [6] of 0.057 s⁻¹ and a kcat/Km [6] of 79 M⁻¹ s⁻¹.
